{"source": "patent US20150183820A1", "key": {"[1]": {"target": "gamma-globulin derived from human serum (Wako Pharmaceuticals)", "assay": "pH gradient affinity chromatography, commercial comparison column"}, "[2]": {"target": "IgG1 type humanized monoclonal antibody", "assay": "pH gradient affinity chromatography, binder immobilized on streptavidin column"}, "human immunoglobulin IgG [3]": {"target": "human immunoglobulin IgG", "assay": "SPR, binder on SA chip, 1 uM IgG, dissociation in 10 mM sodium acetate pH 4.0"}, "human immunoglobulin IgG [4]": {"target": "human immunoglobulin IgG", "assay": "SPR, binder on SA chip, dissociation at pH 4.0, 1:1 Langmuir"}, "[5]": {"target": "ChromPure Human IgG, Fc Fragment (human)", "assay": "stepwise pH affinity chromatography, binder immobilized on streptavidin column"}, "human immunoglobulin IgG [6]": {"target": "human immunoglobulin IgG", "assay": "SPR, binder on SA chip, dissociation at pH 4.0"}, "[7]": {"target": "IgG1 type humanized monoclonal antibody", "assay": "SPR, IgG1 antibody amine-coupled on CM-5 chip (5000 RU), pH 7.4, 25 C, 1:1 Langmuir"}, "human IgG3 [8]": {"target": "human IgG3", "assay": "pH gradient affinity chromatography, SulfoLink immobilized column"}, "[9]": {"target": "IgG1 type humanized monoclonal antibody", "assay": "pH gradient affinity chromatography, SulfoLink immobilized column"}, "[10]": {"target": "IgG1 type humanized monoclonal antibody", "assay": "SPR, IgG1 antibody amine-coupled on CM-5 chip, pH 7.4"}, "[11]": {"target": "gamma-globulin derived from human serum (Wako Pharmaceuticals)", "assay": "pH gradient affinity chromatography, DSC-activated immobilized column"}, "human IgG3 [12]": {"target": "human IgG3", "assay": "pH gradient affinity chromatography, Epoxy-activated Sepharose 6B immobilized column"}, "[13]": {"target": "IgG1 type humanized monoclonal antibody"}, "[14]": {"target": "Fc region of human immunoglobulin (human)", "assay": "SPR, Fc on CM5 chip, pH 7.4, 1:1 Langmuir"}, "[15]": {"target": "Fc region of human immunoglobulin (human)", "assay": "SPR, Fc on CM4 chip, pH 4.5, 1:1 Langmuir"}, "[16]": {"target": "Fc region of human immunoglobulin (human)", "assay": "SPR, Fc on CM4 chip, pH 4.5"}, "[17]": {"target": "Fc region of human immunoglobulin (human)", "assay": "SPR, Fc on CM5 chip, pH 7.4"}, "[18]": {"target": "IgG1 type humanized monoclonal antibody", "assay": "pH gradient affinity chromatography, Epoxy-activated Sepharose 6B immobilized column"}}, "note": "Where two headings read alike, the source gives them in different places.", "data": [{"molecule": "Sepharose 4 Fast Flow column (GE Healthcare)", "values": [{"measurement": "elution peak pH", "setting": "[1]", "result": 3.2, "unit": "pH"}]}, {"molecule": "OXADac-PG01 (protein) MGAGTPVTAPLAGTIWKVLASEGQTVAAGEVLLILEAMKMETEIRAAQAGTVRGIAVKAGDAVAVGDTLMTLAGSGSDLYDDDDKGIITSLYKKAGSAAAPFTDTYKLILNGKTLKGETTTEAVDAATAEKVFKQYANDNGVDGEWTYDDATKTFTVTE", "values": [{"measurement": "value of the elution peak of antibody in pH-gradient chromatography", "setting": "[2]", "result": 3.18, "unit": "pH"}, {"measurement": "ratio of the remaining amount of antibody by SPR sensorgram at pH 4.0", "setting": "human immunoglobulin IgG [3]", "result": 99, "unit": "%"}, {"measurement": "koff", "setting": "human immunoglobulin IgG [4]", "result": "4.2e-05", "unit": "s⁻¹"}, {"measurement": "recovery ratio of antibody in step-wise pH chromatography at pH 4.0", "setting": "[5]", "result": 10, "unit": "%"}]}, {"molecule": "OXADac-PG07 (designed binder) MGAGTPVTAPLAGTIWKVLASEGQTVAAGEVLLILEAMKMETEIRAAQAGTVRGIAVKAGDAVAVGDTLMTLAGSGSDLYDDDDKGIITSLYKKAGSAAAPFTDTYKLILNGKTLKGETTTEAVDAATAEKVFKQYANEHGVDGEWTYDPETKTFTVTE", "values": [{"measurement": "ratio of the remaining amount of antibody by SPR sensorgram at pH 4.0", "setting": "human immunoglobulin IgG [3]", "result": 93, "unit": "%"}, {"measurement": "koff", "setting": "human immunoglobulin IgG [4]", "result": 0.00011, "unit": "s⁻¹"}]}, {"molecule": "OXADac-PG20 (designed binder) MGAGTPVTAPLAGTIWKVLASEGQTVAAGEVLLILEAMKMETEIRAAQAGTVRGIAVKAGDAVAVGDTLMTLAGSGSDLYDDDDKGIITSLYKKAGSAAAPFTDTYKLILNGKTLKGETTTEAVHAATAEKVFKHYANEHGVHGHWTYDPETKTFTVTE", "values": [{"measurement": "elution pH difference against the wild-type (OXADac-PG01)", "setting": "[2]", "result": 1.1, "unit": "pH points"}, {"measurement": "value of the elution peak of antibody in pH-gradient chromatography", "setting": "[2]", "result": 4.29, "unit": "pH"}, {"measurement": "ratio of the remaining amount of antibody by SPR sensorgram at pH 4.0", "setting": "human immunoglobulin IgG [3]", "result": 58, "unit": "%"}, {"measurement": "elution rate at pH 4 against the wild-type (OXADac-PG01)", "setting": "[5]", "result": 7, "unit": "times"}, {"measurement": "recovery ratio of antibody in step-wise pH chromatography at pH 4.0", "setting": "[5]", "result": 71, "unit": "%"}]}, {"molecule": "OXADac-PG15 (designed binder) MGAGTPVTAPLAGTIWKVLASEGQTVAAGEVLLILEAMKMETEIRAAQAGTVRGIAVKAGDAVAVGDTLMTLAGSGSDLYDDDDKGIITSLYKKAGSAAAPFTDTYKLILNGKRLKGETTTEAVDAATAEKVFKQYANEHGVDGEWTYDPETKTFTVTE", "values": [{"measurement": "ratio of the remaining amount of antibody by SPR sensorgram at pH 4.0", "setting": "human immunoglobulin IgG [3]", "result": 90, "unit": "%"}, {"measurement": "koff", "setting": "human immunoglobulin IgG [4]", "result": 0.00044, "unit": "s⁻¹"}]}, {"molecule": "OXADac-PG13 (designed binder) MGAGTPVTAPLAGTIWKVLASEGQTVAAGEVLLILEAMKMETEIRAAQAGTVRGIAVKAGDAVAVGDTLMTLAGSGSDLYDDDDKGIITSLYKKAGSAAAPFTDTYKLILNGKTLKGETTTEAVDAATAEKVFKQYANEHGVHGEWTYDPETKTFTVTE", "values": [{"measurement": "value of the elution peak of antibody in pH-gradient chromatography", "setting": "[2]", "result": 3.56, "unit": "pH"}, {"measurement": "ratio of the remaining amount of antibody by SPR sensorgram at pH 4.0", "setting": "human immunoglobulin IgG [3]", "result": 64, "unit": "%"}, {"measurement": "koff", "setting": "human immunoglobulin IgG [4]", "result": 0.06, "unit": "s⁻¹"}]}, {"molecule": "OXADac-PG16 (designed binder) MGAGTPVTAPLAGTIWKVLASEGQTVAAGEVLLILEAMKMETEIRAAQAGTVRGIAVKAGDAVAVGDTLMTLAGSGSDLYDDDDKGIITSLYKKAGSAAAPFTDTYKLILNGKTLKGETITEAVDAATAEKVFKQYANEHGVDGEWTYDPETKTFTVTE", "values": [{"measurement": "ratio of the remaining amount of antibody by SPR sensorgram at pH 4.0", "setting": "human immunoglobulin IgG [3]", "result": 94, "unit": "%"}, {"measurement": "koff", "setting": "human immunoglobulin IgG [4]", "result": 0.00013, "unit": "s⁻¹"}]}, {"molecule": "OXADac-PG19 (designed binder) MGAGTPVTAPLAGTIWKVLASEGQTVAAGEVLLILEAMKMETEIRAAQAGTVRGIAVKAGDAVAVGDTLMTLAGSGSDLYDDDDKGIITSLYKKAGSAAAPFTDTYKLILNGKTLKGETTTEAVDAATAEKVFKHYANEHGVHGHWTYDPETKTFTVTE", "values": [{"measurement": "value of the elution peak of antibody in pH-gradient chromatography", "setting": "[2]", "result": 4.04, "unit": "pH"}, {"measurement": "ratio of the remaining amount of antibody by SPR sensorgram at pH 4.0", "setting": "human immunoglobulin IgG [3]", "result": 38, "unit": "%"}, {"measurement": "koff", "setting": "human immunoglobulin IgG [4]", "result": 0.27, "unit": "s⁻¹"}, {"measurement": "increase of the dissociation rate constant against the wild-type (OXADac-PG01) (orders of magnitude)", "setting": "human immunoglobulin IgG [6]", "result": 3}, {"measurement": "percent of adsorbed IgG dissociated at pH 4.0", "setting": "human immunoglobulin IgG [6]", "result": 60, "unit": "%"}, {"measurement": "elution rate at pH 4 against the wild-type (OXADac-PG01)", "setting": "[5]", "result": 7, "unit": "times"}, {"measurement": "recovery ratio of antibody in step-wise pH chromatography at pH 4.0", "setting": "[5]", "result": 88, "unit": "%"}]}, {"molecule": "OXADac-PG14 (designed binder) MGAGTPVTAPLAGTIWKVLASEGQTVAAGEVLLILEAMKMETEIRAAQAGTVRGIAVKAGDAVAVGDTLMTLAGSGSDLYDDDDKGIITSLYKKAGSAAAPFTDTYKLILNGKTLKGETTTEAVDAATAEKVFKQYANEHGVDGHWTYDPETKTFTVTE", "values": [{"measurement": "ratio of the remaining amount of antibody by SPR sensorgram at pH 4.0", "setting": "human immunoglobulin IgG [3]", "result": 71, "unit": "%"}, {"measurement": "koff", "setting": "human immunoglobulin IgG [4]", "result": 0.04, "unit": "s⁻¹"}]}, {"molecule": "OXADac-PG17 (designed binder) MGAGTPVTAPLAGTIWKVLASEGQTVAAGEVLLILEAMKMETEIRAAQAGTVRGIAVKAGDAVAVGDTLMTLAGSGSDLYDDDDKGIITSLYKKAGSAAAPFTDTYKLILNGKRLKGETITEAVDAATAEKVFKQYANEHGVDGEWTYDPETKTFTVTE", "values": [{"measurement": "value of the elution peak of antibody in pH-gradient chromatography", "setting": "[2]", "result": 3.27, "unit": "pH"}, {"measurement": "ratio of the remaining amount of antibody by SPR sensorgram at pH 4.0", "setting": "human immunoglobulin IgG [3]", "result": 86, "unit": "%"}, {"measurement": "koff", "setting": "human immunoglobulin IgG [4]", "result": 0.032, "unit": "s⁻¹"}]}, {"molecule": "CGB19H-3D (designed binder) MAYYDPETGTWYSGGRDTYKLILNGKTLKGETTTEAVDAATAEKVFKHYANEHGVHGHWTYDPETKTFTVTERPEVIDASELTPAVDTYKLILNGKTLKGETTTEAVDAATAEKVFKHYANEHGVHGHWTYDPETKTFTVTERPEVIDASELTPAVDTYKLILNGKTLKGETTTEAVDAATAEKVFKHYANEHGVHGHWTYDPETKTFTVTERPEVIDASELTPAVGGGGCHHHHHH", "values": [{"measurement": "Kd", "setting": "[7]", "result": 0.0001, "unit": "µM"}, {"measurement": "elution peak pH", "setting": "human IgG3 [8]", "result": 5.2, "unit": "pH"}, {"measurement": "elution peak pH", "setting": "[9]", "result": 4.3, "unit": "pH"}, {"measurement": "avidity improvement against the single domain-type M-PG19", "setting": "[10]", "result": 190, "unit": "fold"}, {"measurement": "difference of the dissociation rate constants against M-PG19", "setting": "[10]", "result": 370, "unit": "times"}, {"measurement": "elution peak pH", "setting": "[11]", "result": 3.6, "unit": "pH"}, {"measurement": "elution peak pH", "setting": "human IgG3 [12]", "result": 4.9, "unit": "pH"}, {"measurement": "elution peak pH", "setting": "[13]", "result": 4.3, "unit": "pH"}]}, {"molecule": "M-PG07 (designed binder) MDTYKLILNGKTLKGETTTEAVDAATAEKVFKQYANEHGVDGEWTYDPETKTFTVTE", "values": [{"measurement": "Kd", "setting": "[14]", "result": 0.29, "unit": "µM"}, {"measurement": "Kd", "setting": "[15]", "result": 0.23, "unit": "µM"}]}, {"molecule": "M-PG19 (designed binder) MDTYKLILNGKTLKGETTTEAVDAATAEKVFKHYANEHGVHGHWTYDPETKTFTVTE", "values": [{"measurement": "Kd", "setting": "[7]", "result": 0.019, "unit": "µM"}, {"measurement": "affinity in the acidic region against M-PG01", "setting": "[16]", "result": 0.6, "unit": "times"}, {"measurement": "Kd", "setting": "[14]", "result": 0.043, "unit": "µM"}, {"measurement": "Kd", "setting": "[15]", "result": 1, "unit": "µM"}, {"measurement": "avidity in the neutral region against M-PG01", "setting": "[17]", "result": 11, "unit": "times"}]}, {"molecule": "CGB01H-3D (protein) MAYYDPETGTWYSGGRDTYKLILNGKTLKGETTTEAVDAATAEKVFKQYANDNGVDGEWTYDDATKTFTVTERPEVIDASELTPAVDTYKLILNGKTLKGETTTEAVDAATAEKVFKQYANDNGVDGEWTYDDATKTFTVTERPEVIDASELTPAVDTYKLILNGKTLKGETTTEAVDAATAEKVFKQYANDNGVDGEWTYDDATKTFTVTERPEVIDASELTPAVGGGGCHHHHHH", "values": [{"measurement": "elution peak pH", "setting": "human IgG3 [12]", "result": 3.4, "unit": "pH"}, {"measurement": "elution peak pH", "setting": "[18]", "result": 3.3, "unit": "pH"}]}]}
